# Reference: patent US20060257938A1, “Method of screening for drugs that block ligand binding to a lipid binding protein” (priority 2005, published 2006)
# Residue numbers refer to the chain shown, from its start.
# B1: 31E, 72A (protein, listed as Rattus norvegicus)
# chain: AFDGTWKVDRNENYEKFMEKMGINVVKRKLEAHDNLKLTITQEGNKFTVKESSNFRNIDVVFELGVDFAYSAADGTELTGTWTMEGNKLVGKFKRVDNGKELIAVREISGNELIQTYTYEGVEAKRIFKKE
# modifications: PEPTIDE (1)...(131) wild-type rat intestinal fatty acid binding protein
# B2: 14L 38I 72A (protein, listed as Rattus norvegicus)
# chain: B1 chain with Y14L, E31G, L38I
# modifications: PEPTIDE (1)...(131) wild-type rat intestinal fatty acid binding protein
# B3: 11Q, 72A (protein, listed as Rattus norvegicus)
# chain: B1 chain with N11Q, E31G
# modifications: PEPTIDE (1)...(131) wild-type rat intestinal fatty acid binding protein
# B4: 38Y 72G 117M (protein, listed as Rattus norvegicus)
# chain: B1 chain with E31G, L38Y, A72G, Y117M
# modifications: PEPTIDE (1)...(131) wild-type rat intestinal fatty acid binding protein
# B5: 18L, 72A (protein, listed as Rattus norvegicus)
# chain: B1 chain with M18L, E31G
# modifications: PEPTIDE (1)...(131) wild-type rat intestinal fatty acid binding protein
# B6: 31F, 72A (protein, listed as Rattus norvegicus)
# chain: B1 chain with E31F
# modifications: PEPTIDE (1)...(131) wild-type rat intestinal fatty acid binding protein
# B7: 49I, 72A (protein, listed as Rattus norvegicus)
# chain: B1 chain with E31G, V49I
# modifications: PEPTIDE (1)...(131) wild-type rat intestinal fatty acid binding protein
# B8: 62W, 72A (protein, listed as Rattus norvegicus)
# chain: B1 chain with E31G, F62W
# modifications: PEPTIDE (1)...(131) wild-type rat intestinal fatty acid binding protein
# B9: 21D, 72A (protein, listed as Rattus norvegicus)
# chain: B1 chain with M21D, E31G
# modifications: PEPTIDE (1)...(131) wild-type rat intestinal fatty acid binding protein
# B10: 31T, 72A (protein, listed as Rattus norvegicus)
# chain: B1 chain with E31T
# modifications: PEPTIDE (1)...(131) wild-type rat intestinal fatty acid binding protein
# B11: 49M, 72A (protein, listed as Rattus norvegicus)
# chain: B1 chain with E31G, V49M
# modifications: PEPTIDE (1)...(131) wild-type rat intestinal fatty acid binding protein
# B12: 119L, 72A (protein, listed as Rattus norvegicus)
# chain: B1 chain with E31G, Y119L
# modifications: PEPTIDE (1)...(131) wild-type rat intestinal fatty acid binding protein
# B13: 104S, 72A (protein, listed as Rattus norvegicus)
# chain: B1 chain with E31G, A104S
# modifications: PEPTIDE (1)...(131) wild-type rat intestinal fatty acid binding protein
# B14: 70Q, 72A (protein, listed as Rattus norvegicus)
# chain: B1 chain with E31G, Y70Q
# modifications: PEPTIDE (1)...(131) wild-type rat intestinal fatty acid binding protein
# B15: 62Y, 72A (protein, listed as Rattus norvegicus)
# chain: B1 chain with E31G, F62Y
# modifications: PEPTIDE (1)...(131) wild-type rat intestinal fatty acid binding protein
# B16: 38W, 72A (protein, listed as Rattus norvegicus)
# chain: B1 chain with E31G, L38W
# modifications: PEPTIDE (1)...(131) wild-type rat intestinal fatty acid binding protein
# B17: 40M, 72A (protein, listed as Rattus norvegicus)
# chain: B1 chain with E31G, I40M
# modifications: PEPTIDE (1)...(131) wild-type rat intestinal fatty acid binding protein
# B18: 23V, 72A (protein, listed as Rattus norvegicus)
# chain: B1 chain with I23V, E31G
# modifications: PEPTIDE (1)...(131) wild-type rat intestinal fatty acid binding protein
# B19: 73Y, 72A (protein, listed as Rattus norvegicus)
# chain: B1 chain with E31G, A73Y
# modifications: PEPTIDE (1)...(131) wild-type rat intestinal fatty acid binding protein
# B20: 31W, 72A (protein, listed as Rattus norvegicus)
# chain: B1 chain with E31W
# modifications: PEPTIDE (1)...(131) wild-type rat intestinal fatty acid binding protein
# Assay: Probe fluorescence ratio response to arachidonic acid relative to ADIFAB2
# Assay type: binding
# Conditions: arachidonic acid; response relative to ADIFAB2
# Outline: (§1)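 Each fatty acid's response was expressed relative to ADIFAB2, the rI-FABP-L72A probe, as ΔR/ΔRreference. ΔR is the change in the background-corrected two-wavelength intensity ratio R=Fλ1/Fλ2 from its analyte-free baseline R0. Emission was read near about 420-480 nm for unbound and about 495-580 nm for FFA-bound probe.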
row,Molecule,DR/DR AA
1,B1,0.238
2,B2,1.046
3,B3,1.525
4,B4,1.541
5,B5,1.490
6,B6,1.210
7,B7,1.796
8,B8,2.206
9,B9,1.301
10,B10,0.143
11,B11,1.363
12,B12,1.021
13,B13,1.638
14,B14,1.546
15,B15,1.598
16,B16,1.350
17,B17,0.993
18,B18,1.464
19,B19,1.529
20,B20,0.993

# Assay: Probe fluorescence ratio response to oleic acid relative to ADIFAB2
# Assay type: binding
# Conditions: response relative to ADIFAB2
# Outline: as §1
row,Molecule,DR/DR OA
1,B1,0.211
2,B2,0.653
3,B3,1.716
4,B4,1.137
5,B5,1.551
6,B6,1.331
7,B7,1.804
8,B8,2.155
9,B9,1.345
10,B10,−0.024
11,B11,1.296
12,B12,0.778
13,B13,1.663
14,B14,1.604
15,B15,1.439
16,B16,1.583
17,B17,0.990
18,B18,1.561
19,B19,1.537
20,B20,0.868

# Assay: Probe fluorescence ratio response to linolenic acid relative to ADIFAB2
# Assay type: binding
# Conditions: response relative to ADIFAB2
# Outline: as §1
row,Molecule,DR/DR LNA
1,B1,0.522
2,B2,1.177
3,B3,1.582
4,B4,1.228
5,B5,1.544
6,B6,1.647
7,B7,1.820
8,B8,2.120
9,B9,1.478
10,B10,0.510
11,B11,1.369
12,B12,1.053
13,B13,1.538
14,B14,1.622
15,B15,1.395
16,B16,1.336
17,B17,1.021
18,B18,1.351
19,B19,1.603
20,B20,1.031

# Assay: Probe fluorescence ratio response to linoleic acid relative to ADIFAB2
# Assay type: binding
# Conditions: response relative to ADIFAB2
# Outline: as §1
row,Molecule,DR/DR LA
1,B1,0.430
2,B2,1.090
3,B3,1.715
4,B4,1.233
5,B5,1.596
6,B6,1.759
7,B7,1.839
8,B8,2.339
9,B9,1.562
10,B10,0.215
11,B11,1.370
12,B12,1.134
13,B13,1.715
14,B14,1.819
15,B15,1.545
16,B16,2.413
17,B17,1.086
18,B18,1.731
19,B19,1.711
20,B20,1.147

# Assay: Probe fluorescence ratio response to palmitic acid relative to ADIFAB2
# Assay type: binding
# Conditions: response relative to ADIFAB2
# Outline: as §1
row,Molecule,DR/DR PA
1,B1,0.223
2,B2,0.712
3,B3,1.450
4,B4,0.574
5,B5,1.090
6,B6,1.438
7,B7,1.162
8,B8,1.450
9,B9,0.707
10,B10,0.145
11,B11,0.939
12,B12,0.661
13,B13,1.570
14,B14,0.868
15,B15,1.037
16,B16,1.552
17,B17,0.691
18,B18,1.475
19,B19,0.982
20,B20,0.618
